The values that follow come from PMC4398509, “A new regulatory mechanism for bacterial lipoic acid synthesis”.

Where a chain is given by its changes, count along the chain named.

The labels stand for the following.
B1: lipBA_she (dsDNA)
DNA 1: CAAGGTCATAAAGTGTGATCTATCTTACATTTATGGCCAAGAG
DNA 2: CTCTTGGCCATAAATGTAAGATAGATCACACTTTATGACCTTG
B2: fadD_ec (dsDNA)
DNA 1: GTAAAGATAAAAATAAATAGTGACGCGCTTCGCAACCTTTTCGTTGGG
DNA 2: CCCAACGAAAAGGTTGCGAAGCGCGTCACTATTTATTTTTATCTTTAC
B3: ybeD_yp (dsDNA)
DNA 1: ATTGGCCCCATATTGTGATTAATCTTATATTGCAAATAAGCT
DNA 2: AGCTTATTTGCAATATAAGATTAATCACAATATGGGGCCAAT
B4: lipA_ec (dsDNA)
DNA 1: ACGGAGTAATAGATGTTATCCGTAATGCATTTTGAAAAAGTA
DNA 2: TACTTTTTCAAAATGCATTACGGATAACATCTATTACTCCGT
B5: ybeD_ec (dsDNA)
DNA 1: AAACACTTGAAAGTGTAATTTCCGTCCCCATATACTAAGCAT
DNA 2: ATGCTTAGTATATGGGGACGGAAATTACACTTTCAAGTGTTT
B6: ybeD_es (dsDNA)
DNA 1: B5 DNA 1 with A1G, A17G, G24A, A38G, C40T
DNA 2: B5 DNA 2 with G3A, T5C, C19T, T26C, T42C
B7: ybeD_kp (dsDNA)
DNA 1: B5 DNA 1 with A1G, A17G, G24A, A38T, G39T
DNA 2: B5 DNA 2 with C4A, T5A, C19T, T26C, T42C
B8: ybeD_st1 (dsDNA)
DNA 1: B5 DNA 1 with A1G, A5G, A17G, C22T, A38T
DNA 2: B5 DNA 2 with T5A, G21A, T26C, T38C, T42C
B9: ybeD_st2 (dsDNA)
DNA 1: CTGTGGCGGGAGTTGTTATTTTTTTTACGTAATGCCGGAGCT
DNA 2: AGCTCCGGCATTACGTAAAAAAAATAACAACTCCCGCCACAG

The first data set deals with CRP_she (cAMP receptor protein) (UniProt Q8EJ49 1-211). Description: EMSA; cAMP (20 pmol); EMSA: 0.2 pmol DIG probe, CRP (2 pmol in Fig. 6), 20 pmol cAMP, Roche binding buffer (composition and pH not given), 20 uL (15 uL in Fig. S2), room temperature. The following applies: protein: recombinant; tags: N-terminal His6 (pET28a); chain copies: 2; label: DIG-ddUTP 3' end (terminal transferase); blunt. (In EMSA bound probe runs differently from free probe, usually more slowly.)
On to B1, for which the binding result is “binds”.
Still for that read-out and setting: with B2 the entry was “binds”.

The next data set concerns the target CRP_ec (cAMP receptor protein) (Escherichia coli, UniProt P0ACJ8 1-210). Described as above. To be noted: protein: recombinant; tags: His6 (pET28 construct, nickel purified); chain copies: 2; label: DIG-ddUTP 3' end (terminal transferase); blunt.
For B1, the binding result is given as “binds”.
The same measure, in the same setting: in the case of B3 it was “no binding”; in that of B4, “no binding”.
B2: the binding result was “binds”.
On to B5, for which the binding result is recorded as “no binding”.
Turning to B6, the binding result is “binds”.
Still for that read-out and setting: in the case of B7 it was “binds”; in that of B8, “binds”; in that of B9, “no binding”.
